# Measured values reported in the supplement of paper PMC10065799, “High-throughput profiling of sequence recognition by tyrosine kinases and SH2 domains using bacterial peptide display” (eLife, 2023).
# Target: FGFR3 (UniProt P22607)
# Test: phosphorylation enrichment, bacterial display (enrichment ratio); higher = better substrate or ligand; peptides without Tyr show the background
# 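Also: 11-residue human phosphosite peptides and single-mutation variants displayed on the E. coli surface, counted by deep sequencing, each peptide's frequency after selection divided by its frequency in the unselected input library; frequency after pTyr selection over input frequency; kinase dosed for 20-30% of maximal phosphorylation in three min.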
# FGFR3, sequence (P22607 whole entry, looked up): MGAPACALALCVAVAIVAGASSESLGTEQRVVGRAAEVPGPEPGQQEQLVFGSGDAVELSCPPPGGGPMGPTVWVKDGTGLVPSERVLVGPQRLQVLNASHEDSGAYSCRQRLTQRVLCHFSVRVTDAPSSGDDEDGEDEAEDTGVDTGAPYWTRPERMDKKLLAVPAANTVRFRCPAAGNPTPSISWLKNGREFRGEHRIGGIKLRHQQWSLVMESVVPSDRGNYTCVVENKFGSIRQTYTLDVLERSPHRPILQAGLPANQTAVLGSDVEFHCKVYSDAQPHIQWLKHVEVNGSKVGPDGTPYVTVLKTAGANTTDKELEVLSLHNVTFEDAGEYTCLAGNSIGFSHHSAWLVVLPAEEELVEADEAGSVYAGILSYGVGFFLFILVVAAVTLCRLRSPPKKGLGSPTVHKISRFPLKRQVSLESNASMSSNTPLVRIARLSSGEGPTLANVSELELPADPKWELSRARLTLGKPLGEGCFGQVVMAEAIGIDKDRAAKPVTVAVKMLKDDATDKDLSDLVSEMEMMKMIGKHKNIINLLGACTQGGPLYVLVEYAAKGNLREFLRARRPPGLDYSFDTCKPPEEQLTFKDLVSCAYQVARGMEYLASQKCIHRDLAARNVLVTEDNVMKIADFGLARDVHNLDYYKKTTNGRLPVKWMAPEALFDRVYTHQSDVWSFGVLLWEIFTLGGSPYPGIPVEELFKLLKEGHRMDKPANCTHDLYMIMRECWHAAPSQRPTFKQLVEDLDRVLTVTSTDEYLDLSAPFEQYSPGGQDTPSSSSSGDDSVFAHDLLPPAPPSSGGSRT
row,Sequence,phosphorylation enrichment
1,EQLGEYKFQNA [ALB_Y425],0.5
2,QITQVCGFFDE [PPP2CA_Y127_Y127C_YF],1.24
3,RHTRSYDFTEG [FGF7_Y56_M59T_YF],0.382
4,RLSVDYSKKSK [TUBA3E_Y161],0.34
5,LDFNEYFRGLN [HPRT1_Y198_D201G_YF],0.933
6,NFFDTCIKTCL [IQGAP2_Y1445_Y1445C_YF],0.607
7,IGDENYGEGSS [ACO2_Y665],0.738
8,GIVEEYQLPFF [BMPR1A_Y453_YF],0.822
9,MCITRYERESQ [PRNP_Y218_Q217R],0.541
10,KREPQYSSHSS [SIPA1L3_Y1265_G1261R],0.376
11,TTKGSYSLSVR [HCK_Y180],0.582
12,AAYNKYDQERF [CDC73_Y293_R292K],0.454
13,VSFGEYRFRSV [CFTR_Y515_D513G_YF],0.513
14,LAARFYNWVCF [FLT4_Y1231_S1235C_YF],2.11
15,CTTVHYNFMCN [TP53_Y234_I232V_YF],0.673
16,FSPFDYQPCLA [TNS1_Y798_YF],0.978
17,WFQTKYEELQV [KRT6B_Y360_I365V_YF],0.564

row,Sequence,phosphorylation enrichment
1,LPKDLYLISQM [LARP4_Y141_S137P],1.55
2,KLNNEHLELNY [MME_Y497_Y497H],0.517
3,CTTTHYNYMCN [TP53_Y234_I232T],0.533
4,CEAMEYPESKQ [BTK_Y511_L512P],0.736
5,RARPPYTVAAD [ANKZF1_Y572],0.458
6,MANYMYKAGPS [MAML2_Y515],0.496
7,GQLIVYAPPEW [CNTN6_Y315_F314V],0.665
8,KVASVYEAPGF [NT5C_Y65],0.583
9,LKMLVYLDMSK [LRRC7_Y234],1.13
10,QSSALYEDHFL [ASS1_Y83_R86H_YF],0.46
11,HFGCIYHGTLL [MET_Y1093_V1092I],0.931
12,ERTIEYLEEVA [HADHA_Y239],0.845
13,FKEVVYQAMEE [TACC3_Y684_E680K],0.884
14,DGQVNYEGFVQ [CALM1_Y139_E141G],0.724
15,TVHPGYGFLSE [PCCA_Y143_A138T],0.478
16,ASFPLYEPAKM [MKI67_Y340],0.493

# System: Fer (mouse)
# Test: as above
row,Sequence,phosphorylation enrichment
1,EQLGEYKFQNA [ALB_Y425],0.351
2,QITQVCGFFDE [PPP2CA_Y127_Y127C_YF],0.612
3,RHTRSYDFTEG [FGF7_Y56_M59T_YF],0.399
4,RLSVDYSKKSK [TUBA3E_Y161],0.35
5,LDFNEYFRGLN [HPRT1_Y198_D201G_YF],0.62
6,NFFDTCIKTCL [IQGAP2_Y1445_Y1445C_YF],0.45
7,IGDENYGEGSS [ACO2_Y665],0.518
8,GIVEEYQLPFF [BMPR1A_Y453_YF],0.587
9,MCITRYERESQ [PRNP_Y218_Q217R],0.488
10,KREPQYSSHSS [SIPA1L3_Y1265_G1261R],0.401
11,TTKGSYSLSVR [HCK_Y180],0.388
12,AAYNKYDQERF [CDC73_Y293_R292K],0.419
13,VSFGEYRFRSV [CFTR_Y515_D513G_YF],0.402
14,LAARFYNWVCF [FLT4_Y1231_S1235C_YF],2.79
15,CTTVHYNFMCN [TP53_Y234_I232V_YF],0.598
16,FSPFDYQPCLA [TNS1_Y798_YF],0.643
17,WFQTKYEELQV [KRT6B_Y360_I365V_YF],0.459

row,Sequence,phosphorylation enrichment
1,LPKDLYLISQM [LARP4_Y141_S137P],0.646
2,KLNNEHLELNY [MME_Y497_Y497H],0.445
3,CTTTHYNYMCN [TP53_Y234_I232T],0.446
4,CEAMEYPESKQ [BTK_Y511_L512P],0.705
5,RARPPYTVAAD [ANKZF1_Y572],0.443
6,MANYMYKAGPS [MAML2_Y515],0.358
7,GQLIVYAPPEW [CNTN6_Y315_F314V],0.619
8,KVASVYEAPGF [NT5C_Y65],6.87
9,LKMLVYLDMSK [LRRC7_Y234],0.475
10,QSSALYEDHFL [ASS1_Y83_R86H_YF],17.9
11,HFGCIYHGTLL [MET_Y1093_V1092I],0.716
12,ERTIEYLEEVA [HADHA_Y239],0.663
13,FKEVVYQAMEE [TACC3_Y684_E680K],0.829
14,DGQVNYEGFVQ [CALM1_Y139_E141G],0.793
15,TVHPGYGFLSE [PCCA_Y143_A138T],0.425
16,ASFPLYEPAKM [MKI67_Y340],16.3

# Target: Fes (UniProt P07332)
# Sequence (P07332 whole entry, looked up): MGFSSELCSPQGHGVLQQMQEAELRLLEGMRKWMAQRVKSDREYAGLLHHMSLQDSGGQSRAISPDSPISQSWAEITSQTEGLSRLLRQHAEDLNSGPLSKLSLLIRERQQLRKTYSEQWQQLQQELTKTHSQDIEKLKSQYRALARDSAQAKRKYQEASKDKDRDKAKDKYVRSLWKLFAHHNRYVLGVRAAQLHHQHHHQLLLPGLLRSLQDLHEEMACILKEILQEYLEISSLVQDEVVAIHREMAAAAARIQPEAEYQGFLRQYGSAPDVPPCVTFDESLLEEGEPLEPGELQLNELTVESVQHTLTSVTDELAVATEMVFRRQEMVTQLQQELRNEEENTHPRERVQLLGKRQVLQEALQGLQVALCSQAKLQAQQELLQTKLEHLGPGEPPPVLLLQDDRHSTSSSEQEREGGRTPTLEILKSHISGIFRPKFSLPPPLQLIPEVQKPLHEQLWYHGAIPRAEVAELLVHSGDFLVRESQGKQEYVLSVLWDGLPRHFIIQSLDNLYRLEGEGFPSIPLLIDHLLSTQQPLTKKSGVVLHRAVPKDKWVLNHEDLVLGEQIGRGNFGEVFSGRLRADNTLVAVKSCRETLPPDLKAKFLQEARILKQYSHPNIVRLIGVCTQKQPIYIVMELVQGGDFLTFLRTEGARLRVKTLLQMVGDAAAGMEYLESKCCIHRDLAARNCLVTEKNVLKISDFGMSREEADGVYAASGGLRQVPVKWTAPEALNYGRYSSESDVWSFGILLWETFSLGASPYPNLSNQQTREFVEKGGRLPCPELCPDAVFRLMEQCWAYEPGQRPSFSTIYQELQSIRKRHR
# Test: as above
row,Sequence,phosphorylation enrichment
1,EQLGEYKFQNA [ALB_Y425],0.77
2,QITQVCGFFDE [PPP2CA_Y127_Y127C_YF],1.95
3,RHTRSYDFTEG [FGF7_Y56_M59T_YF],0.695
4,RLSVDYSKKSK [TUBA3E_Y161],0.553
5,LDFNEYFRGLN [HPRT1_Y198_D201G_YF],1.45
6,NFFDTCIKTCL [IQGAP2_Y1445_Y1445C_YF],1.01
7,IGDENYGEGSS [ACO2_Y665],1.18
8,GIVEEYQLPFF [BMPR1A_Y453_YF],1.35
9,MCITRYERESQ [PRNP_Y218_Q217R],0.813
10,KREPQYSSHSS [SIPA1L3_Y1265_G1261R],0.629
11,TTKGSYSLSVR [HCK_Y180],0.727
12,AAYNKYDQERF [CDC73_Y293_R292K],0.762
13,VSFGEYRFRSV [CFTR_Y515_D513G_YF],0.801
14,LAARFYNWVCF [FLT4_Y1231_S1235C_YF],2.8
15,CTTVHYNFMCN [TP53_Y234_I232V_YF],0.901
16,FSPFDYQPCLA [TNS1_Y798_YF],1.44
17,WFQTKYEELQV [KRT6B_Y360_I365V_YF],0.94

row,Sequence,phosphorylation enrichment
1,LPKDLYLISQM [LARP4_Y141_S137P],2.13
2,KLNNEHLELNY [MME_Y497_Y497H],0.768
3,CTTTHYNYMCN [TP53_Y234_I232T],0.722
4,CEAMEYPESKQ [BTK_Y511_L512P],1.42
5,RARPPYTVAAD [ANKZF1_Y572],0.591
6,MANYMYKAGPS [MAML2_Y515],0.616
7,GQLIVYAPPEW [CNTN6_Y315_F314V],0.985
8,KVASVYEAPGF [NT5C_Y65],0.903
9,LKMLVYLDMSK [LRRC7_Y234],1.72
10,QSSALYEDHFL [ASS1_Y83_R86H_YF],1.47
11,HFGCIYHGTLL [MET_Y1093_V1092I],1.46
12,ERTIEYLEEVA [HADHA_Y239],1.35
13,FKEVVYQAMEE [TACC3_Y684_E680K],1.05
14,DGQVNYEGFVQ [CALM1_Y139_E141G],1.07
15,TVHPGYGFLSE [PCCA_Y143_A138T],0.747
16,ASFPLYEPAKM [MKI67_Y340],1.52

# Target: Fyn (UniProt P06241)
# Sequence (P06241 whole entry, looked up): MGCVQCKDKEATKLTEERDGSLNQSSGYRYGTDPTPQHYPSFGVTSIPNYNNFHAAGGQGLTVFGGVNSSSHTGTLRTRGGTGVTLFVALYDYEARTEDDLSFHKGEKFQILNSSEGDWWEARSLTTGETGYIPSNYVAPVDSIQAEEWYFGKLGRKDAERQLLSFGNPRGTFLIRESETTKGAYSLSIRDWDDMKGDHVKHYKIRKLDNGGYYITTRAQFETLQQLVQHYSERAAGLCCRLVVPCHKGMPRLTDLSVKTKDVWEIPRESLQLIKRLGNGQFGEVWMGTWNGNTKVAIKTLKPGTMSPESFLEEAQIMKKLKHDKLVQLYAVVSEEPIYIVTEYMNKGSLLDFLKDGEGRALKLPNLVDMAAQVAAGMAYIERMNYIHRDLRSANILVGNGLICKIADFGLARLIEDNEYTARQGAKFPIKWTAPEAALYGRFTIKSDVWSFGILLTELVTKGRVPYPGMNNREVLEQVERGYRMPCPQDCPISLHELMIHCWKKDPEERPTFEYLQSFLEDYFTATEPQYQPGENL
# Test: as above
row,Sequence,phosphorylation enrichment
1,EQLGEYKFQNA [ALB_Y425],0.394
2,QITQVCGFFDE [PPP2CA_Y127_Y127C_YF],0.434
3,RHTRSYDFTEG [FGF7_Y56_M59T_YF],0.366
4,RLSVDYSKKSK [TUBA3E_Y161],0.247
5,LDFNEYFRGLN [HPRT1_Y198_D201G_YF],0.746
6,NFFDTCIKTCL [IQGAP2_Y1445_Y1445C_YF],0.369
7,IGDENYGEGSS [ACO2_Y665],0.529
8,GIVEEYQLPFF [BMPR1A_Y453_YF],0.591
9,MCITRYERESQ [PRNP_Y218_Q217R],0.404
10,KREPQYSSHSS [SIPA1L3_Y1265_G1261R],0.338
11,TTKGSYSLSVR [HCK_Y180],0.461
12,AAYNKYDQERF [CDC73_Y293_R292K],0.371
13,VSFGEYRFRSV [CFTR_Y515_D513G_YF],0.356
14,LAARFYNWVCF [FLT4_Y1231_S1235C_YF],0.849
15,CTTVHYNFMCN [TP53_Y234_I232V_YF],0.499
16,FSPFDYQPCLA [TNS1_Y798_YF],0.589
17,WFQTKYEELQV [KRT6B_Y360_I365V_YF],0.359

row,Sequence,phosphorylation enrichment
1,LPKDLYLISQM [LARP4_Y141_S137P],0.69
2,KLNNEHLELNY [MME_Y497_Y497H],0.471
3,CTTTHYNYMCN [TP53_Y234_I232T],0.441
4,CEAMEYPESKQ [BTK_Y511_L512P],0.543
5,RARPPYTVAAD [ANKZF1_Y572],0.35
6,MANYMYKAGPS [MAML2_Y515],0.508
7,GQLIVYAPPEW [CNTN6_Y315_F314V],1.81
8,KVASVYEAPGF [NT5C_Y65],7.05
9,LKMLVYLDMSK [LRRC7_Y234],0.654
10,QSSALYEDHFL [ASS1_Y83_R86H_YF],1.36
11,HFGCIYHGTLL [MET_Y1093_V1092I],1
12,ERTIEYLEEVA [HADHA_Y239],0.722
13,FKEVVYQAMEE [TACC3_Y684_E680K],2.37
14,DGQVNYEGFVQ [CALM1_Y139_E141G],0.512
15,TVHPGYGFLSE [PCCA_Y143_A138T],0.384
16,ASFPLYEPAKM [MKI67_Y340],4.36
